Results as given in article PMC7135997, “Cardiac myosin regulatory light chain kinase modulates cardiac contractility by phosphorylating both myosin regulatory light chain and troponin I” (The Journal of Biological Chemistry, 2020).

What was measured:
rat cardiac troponin C = rat cardiac troponin C (rat, UniProt Q4PP99 1-161); assay: SEC-MALS; complex reconstituted from the three separately purified subunits mixed 1:1:1 in 6 mol/liter urea, dialysed, purified on Resource-Q; Superdex 200 5/150 GL in 50 mmol/liter Tris-HCl (pH 7.4), 5 mM MgCl2, 1 mmol/liter CaCl2, 100 mM NaCl, 100 mmol/liter tris(2-carboxyethyl)phosphine; also characterized by HPLC and ESI-MS; conditions: both partners purified
rat cardiac troponin I = molecular target: T1, rat cardiac troponin I (rat, UniProt P23693 1-211); assay: as above; conditions: both partners purified
T1 construct: cardiac troponin I, rat, cloned from a rat heart cDNA library into pET3a, codon-optimized; No tag is named; unphosphorylated recombinant protein; also called rcTnI; rat cTnI; source: E. coli BL21(DE3)-RIPL, inclusion bodies, purified (CM Sepharose in 6 mol/liter urea)
T1 sequence (P23693 whole entry): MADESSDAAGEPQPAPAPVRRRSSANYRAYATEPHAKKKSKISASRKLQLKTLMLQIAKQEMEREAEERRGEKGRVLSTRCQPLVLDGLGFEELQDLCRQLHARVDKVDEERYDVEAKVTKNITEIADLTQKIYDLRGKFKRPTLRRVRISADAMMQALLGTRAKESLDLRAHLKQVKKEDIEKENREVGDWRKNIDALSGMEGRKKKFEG

stoichiometry N (rat cardiac troponin C): 1
stoichiometry N (rat cardiac troponin I): 1
B1: rat cardiac troponin T (natural protein)
chain: not shown
notes: cardiac troponin T, rat, cloned from a rat heart cDNA library into pET3a, codon-optimized; also called rat cTnT; rcTnT; source: E. coli BL21(DE3)-RIPL, soluble fraction, purified (ion exchange, similar method to rcTnI)
